These results are taken from paper PMC10786891, “Massively parallel profiling of RNA-targeting CRISPR-Cas13d”.

The chains are these.
T1: EsCas13d, nuclease-dead (Eubacterium siraeum, UniProt B0MS50, R295A;H300A;R849A;H854A)
T1 sequence: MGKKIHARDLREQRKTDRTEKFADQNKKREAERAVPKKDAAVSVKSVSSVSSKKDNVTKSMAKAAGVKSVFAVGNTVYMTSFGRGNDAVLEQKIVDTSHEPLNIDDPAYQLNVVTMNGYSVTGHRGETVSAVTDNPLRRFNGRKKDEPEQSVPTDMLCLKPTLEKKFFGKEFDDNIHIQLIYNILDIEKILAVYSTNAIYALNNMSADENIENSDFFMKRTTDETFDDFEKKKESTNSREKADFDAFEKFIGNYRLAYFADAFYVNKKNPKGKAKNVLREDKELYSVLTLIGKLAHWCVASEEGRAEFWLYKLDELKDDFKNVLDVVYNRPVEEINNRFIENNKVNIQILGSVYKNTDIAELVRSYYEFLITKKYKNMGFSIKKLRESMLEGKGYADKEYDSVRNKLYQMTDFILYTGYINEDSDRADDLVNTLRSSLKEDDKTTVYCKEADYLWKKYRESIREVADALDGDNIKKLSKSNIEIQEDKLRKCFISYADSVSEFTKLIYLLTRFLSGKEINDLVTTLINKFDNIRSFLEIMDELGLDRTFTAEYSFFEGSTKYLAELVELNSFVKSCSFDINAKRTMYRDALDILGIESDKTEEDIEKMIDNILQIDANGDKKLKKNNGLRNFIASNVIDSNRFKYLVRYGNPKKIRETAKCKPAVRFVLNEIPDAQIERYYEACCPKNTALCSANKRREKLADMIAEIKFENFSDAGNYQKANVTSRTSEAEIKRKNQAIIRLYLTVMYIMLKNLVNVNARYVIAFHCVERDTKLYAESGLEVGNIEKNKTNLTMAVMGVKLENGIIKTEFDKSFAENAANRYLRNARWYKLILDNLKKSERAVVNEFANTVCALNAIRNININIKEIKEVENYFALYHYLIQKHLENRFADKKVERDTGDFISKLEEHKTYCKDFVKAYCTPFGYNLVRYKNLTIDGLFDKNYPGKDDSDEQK

B1: target 1 G17A,C22A (mixed)
RNA 1: CACCCGUGCAAAAAUGCAGGGGUCUAAAACUGAGCGGAUAACCUCUCUAUGG
RNA 2: GGGAAUGGAUCCACAUCUACGAAUUCGUAACAUAAAGAGGUUAUCCGCUCACCGAGAUCGGAAGAGCACACGU
B2: target 1 C2A,C6U (mixed)
RNA 1: CACCCGUGCAAAAAUGCAGGGGUCUAAAACUGAGCGGAUAACCUCUCUAUGG
RNA 2: GGGAAUGGAUCCACAUCUACGAAUUCGUACCAUAGAGAGGUUAUCUGCUAACCGAGAUCGGAAGAGCACACGU
B3: target 1 insG 3' of 18,insG 3' of 4 (mixed)
RNA 1: CACCCGUGCAAAAAUGCAGGGGUCUAAAACUGAGCGGAUAACCUCUCUAUGG
RNA 2: GGGAAUGGAUCCACAUCUACGAAUUCGUACCAUAGGAGAGGUUAUCCGCGUCACCGAGAUCGGAAGAGCACACGU
B4: target 1 C2U,U3C (mixed)
RNA 1: CACCCGUGCAAAAAUGCAGGGGUCUAAAACUGAGCGGAUAACCUCUCUAUGG
RNA 2: GGGAAUGGAUCCACAUCUACGAAUUCGUACCAUAGAGAGGUUAUCCGCCUACCGAGAUCGGAAGAGCACACGU
B5: target 1 insU 3' of 20,insU 3' of 5 (mixed)
RNA 1: CACCCGUGCAAAAAUGCAGGGGUCUAAAACUGAGCGGAUAACCUCUCUAUGG
RNA 2: GGGAAUGGAUCCACAUCUACGAAUUCGUACCAUUAGAGAGGUUAUCCGUCUCACCGAGAUCGGAAGAGCACACGU
B6: target 1 complement block 3-6 (mixed)
RNA 1: CACCCGUGCAAAAAUGCAGGGGUCUAAAACUGAGCGGAUAACCUCUCUAUGG
RNA 2: GGGAAUGGAUCCACAUCUACGAAUUCGUACCAUAGAGAGGUUAUCGCGACACCGAGAUCGGAAGAGCACACGU
B7: target 1 insC 3' of 16,insG 3' of 6 (mixed)
RNA 1: CACCCGUGCAAAAAUGCAGGGGUCUAAAACUGAGCGGAUAACCUCUCUAUGG
RNA 2: GGGAAUGGAUCCACAUCUACGAAUUCGUACCAUAGACGAGGUUAUCCGGCUCACCGAGAUCGGAAGAGCACACGU
B8: target 1 insG 3' of 11,insA 3' of 8 (mixed)
RNA 1: CACCCGUGCAAAAAUGCAGGGGUCUAAAACUGAGCGGAUAACCUCUCUAUGG
RNA 2: GGGAAUGGAUCCACAUCUACGAAUUCGUACCAUAGAGAGGUGUAUACCGCUCACCGAGAUCGGAAGAGCACACGU
B9: target 1 insC 3' of 15,insG 3' of 2 (mixed)
RNA 1: CACCCGUGCAAAAAUGCAGGGGUCUAAAACUGAGCGGAUAACCUCUCUAUGG
RNA 2: GGGAAUGGAUCCACAUCUACGAAUUCGUACCAUAGAGCAGGUUAUCCGCUCGACCGAGAUCGGAAGAGCACACGU
B10: target 1 insA 3' of 15,insA 3' of 13 (mixed)
RNA 1: CACCCGUGCAAAAAUGCAGGGGUCUAAAACUGAGCGGAUAACCUCUCUAUGG
RNA 2: GGGAAUGGAUCCACAUCUACGAAUUCGUACCAUAGAGAAGAGUUAUCCGCUCACCGAGAUCGGAAGAGCACACGU
B11: target 1 insU 3' of 13,insG 3' of 10 (mixed)
RNA 1: CACCCGUGCAAAAAUGCAGGGGUCUAAAACUGAGCGGAUAACCUCUCUAUGG
RNA 2: GGGAAUGGAUCCACAUCUACGAAUUCGUACCAUAGAGAGUGUUGAUCCGCUCACCGAGAUCGGAAGAGCACACGU
B12: target 1 C2G,G13U (mixed)
RNA 1: CACCCGUGCAAAAAUGCAGGGGUCUAAAACUGAGCGGAUAACCUCUCUAUGG
RNA 2: GGGAAUGGAUCCACAUCUACGAAUUCGUACCAUAGAGAUGUUAUCCGCUGACCGAGAUCGGAAGAGCACACGU
B13: target 1 insA 3' of 21,insG 3' of 18 (mixed)
RNA 1: CACCCGUGCAAAAAUGCAGGGGUCUAAAACUGAGCGGAUAACCUCUCUAUGG
RNA 2: GGGAAUGGAUCCACAUCUACGAAUUCGUACCAAUAGGAGAGGUUAUCCGCUCACCGAGAUCGGAAGAGCACACGU

The series has as its target T1, EsCas13d, nuclease-dead. The series is described as follows: crRNA (strand 1, pre-loaded); Mg2+; 40 mM Tris-HCl pH 7.5, 150 mM NaCl, 6 mM MgCl2, 1 mM DTT, 0.1% Tween-20, 0.2 mg/ml BSA; 25 C; 10 min per concentration, then washed. The following applies: tags: His6-TwinStrep-SUMO cleaved; N-terminal SNAP kept (SNAP-Surface 488); label: 3' end held by stalled T7 RNA polymerase.
For B1, the Kd (usually a measure of binding affinity in units of concentration) was 57 ± 7 nM.

For B2, the Kd was 5.88 ± 0.27 nM.

Consider B3, for which the Kd came to 37.5 ± 3.1 nM.

For B4, the Kd stood at 16.6 ± 1.7 nM.

As for B5, the Kd stood at 24 ± 4 nM.

Take B6: the Kd was found to be 5.84 ± 0.3 nM.

The molecule B7 registered a Kd of around 100 nM.

The molecule B8 had a Kd of 40.5 ± 2.5 nM.

Molecule B9 registered a Kd of 17.9 ± 1.3 nM.

With B10, the affinity, expressed as Kd, was 5.63 ± 0.28 nM.

B11 came in with a Kd of 63 ± 23 nM.

B12 displayed a Kd of around 60 nM.

In turn, B13 registered a Kd of 77 ± 20 nM.
